Measurements as given in article PMC10127259.

Legend:
Settings in all cases: remark: other sources report otherwise
[1] = molecular target: T1, Nt17 peptide (the first 17 amino acids at the N-terminus of huntingtin), P42858; assay: native MS; cVSSI-MS, positive ion mode; Nt17 10 uM incubated with POPC vesicles with 20% exogenous cholesterol, 10:1 lipid:peptide, 24 h at 37 °C, 10 mM ammonium acetate; peak areas normalised to [M + 2H]2+
T1 chain: MATLEKLMKAFESLKSF

[2] = molecular target: T1, Nt17 peptide (the first 17 amino acids …); assay: native MS; cVSSI-MS, positive ion mode; Nt17 10 uM incubated with DOPC vesicles with 20% exogenous cholesterol, 10:1 lipid:peptide, 24 h at 37 °C, 10 mM ammonium acetate; peak areas normalised to [M + 2H]2+
[3] = molecular target: T1, Nt17 peptide (the first 17 amino acids …); assay: native MS; cVSSI-MS, positive ion mode; Nt17 10 uM incubated with pure DOPC vesicles (0% cholesterol), 10:1 lipid:peptide, 24 h at 37 °C, 10 mM ammonium acetate; peak areas normalised to [M + 2H]2+
[4] = molecular target: T1, Nt17 peptide (the first 17 amino acids …); assay: native MS; cVSSI-MS, positive ion mode; Nt17 10 uM incubated with POPG vesicles with 20% exogenous cholesterol, 10:1 lipid:peptide, 24 h at 37 °C, 10 mM ammonium acetate; peak areas normalised to [M + 2H]2+
[5] = molecular target: T1, Nt17 peptide (the first 17 amino acids …); assay: native MS; cVSSI-MS, positive ion mode; Nt17 10 uM incubated with pure POPC vesicles (0% cholesterol), 10:1 lipid:peptide, 24 h at 37 °C, 10 mM ammonium acetate; peak areas normalised to [M + 2H]2+

Question: How did the relative integrated peak area of [2M + 2L] (2 Nt17 + 2 POPC), against [M + 2H]2+ [1] turn out when MATLEKLMKAFESLKSF [Nt17 peptide (the first 17 amino acids at the N-terminus of huntingtin), P42858 1-17] was run?
Answer: Its relative integrated peak area of [2M + 2L] (2 Nt17 + 2 POPC), against [M + 2H]2+ is 0.11%.

Question: And the relative integrated peak area of [3M + 1L] (3 Nt17 + 1 POPC), against [M + 2H]2+ [1]?
Answer: The relative integrated peak area of [3M + 1L] (3 Nt17 + 1 POPC), against [M + 2H]2+ was 1.1%.

Question: And the total relative integrated peak area of complexes with two peptides, against [M + 2H]2+ [1]?
Answer: The total relative integrated peak area of complexes with two peptides, against [M + 2H]2+ was 2.7%.

Question: What about the relative peak area of [2M + 3L] (2 Nt17 + 3 DOPC), against [M + 2H]2+ [2] of the same binder?
Answer: The relative peak area of [2M + 3L] (2 Nt17 + 3 DOPC), against [M + 2H]2+ was 0.15%.

Question: And the total relative peak area of complexes with four peptides, against [M + 2H]2+ [2]?
Answer: The total relative peak area of complexes with four peptides, against [M + 2H]2+ was 1.2%.

Question: What about the total relative peak area of complexes with three peptides, against [M + 2H]2+ [2] of the same binder?
Answer: Its total relative peak area of complexes with three peptides, against [M + 2H]2+ is 4%.

Question: And the total relative peak area of complexes with two peptides, against [M + 2H]2+ [2]?
Answer: Its total relative peak area of complexes with two peptides, against [M + 2H]2+ is 8%.

Question: And the relative peak area of [2M + 3L] (2 Nt17 + 3 DOPC), against [M + 2H]2+ [3]?
Answer: The relative peak area of [2M + 3L] (2 Nt17 + 3 DOPC), against [M + 2H]2+ was 0.45%.

Question: And the relative peak area of [3M + 1L] (3 Nt17 + 1 DOPC), against [M + 2H]2+ [3]?
Answer: Its relative peak area of [3M + 1L] (3 Nt17 + 1 DOPC), against [M + 2H]2+ is 3.3%.

Question: And the relative peak area of [4M + 1L] (4 Nt17 + 1 DOPC), against [M + 2H]2+ [3]?
Answer: The relative peak area of [4M + 1L] (4 Nt17 + 1 DOPC), against [M + 2H]2+ was 0.98%.

Question: And the total relative peak area of complexes with three peptides, against [M + 2H]2+ [3]?
Answer: Its total relative peak area of complexes with three peptides, against [M + 2H]2+ is 3.6%.

Question: And the total relative peak area of complexes with two peptides, against [M + 2H]2+ [3]?
Answer: Its total relative peak area of complexes with two peptides, against [M + 2H]2+ is 10.3%.

Question: And the relative peak area of [2M + 2L] (2 Nt17 + 2 POPG), against [M + 2H]2+ [4]?
Answer: Its relative peak area of [2M + 2L] (2 Nt17 + 2 POPG), against [M + 2H]2+ is 23%.

Question: What about the relative peak area of [2M + 3L] (2 Nt17 + 3 POPG), against [M + 2H]2+ [4] of the same binder?
Answer: The relative peak area of [2M + 3L] (2 Nt17 + 3 POPG), against [M + 2H]2+ was 0.6%.

Question: And the stoichiometry N [4]?
Answer: The stoichiometry N was 2.

Question: What about the relative integrated peak area of [2M + 1L] (2 Nt17 + 1 POPC), against [M + 2H]2+ [5] of the same binder?
Answer: Its relative integrated peak area of [2M + 1L] (2 Nt17 + 1 POPC), against [M + 2H]2+ is 1.3%.

Question: What about the relative integrated peak area of [3M + 1L] (3 Nt17 + 1 POPC), against [M + 2H]2+ [5] of the same binder?
Answer: The relative integrated peak area of [3M + 1L] (3 Nt17 + 1 POPC), against [M + 2H]2+ was 0.8%.
